The assay addresses SARS-CoV-2 Omicron (B.1.1.529) RBD (SARS-CoV-2 Omicron B.1.1.529 (BA.1), strain).

The record followed here is article PMC8866119 (Nature, 2021).

Changes are numbered by the printed parent chain.

B1: COV2-2828 (antibody, V domains shown)
VH: EVQLVESGGGLVKPGGSLRLSCAASGFTFRDYSMNWVRQAPGKGLEWVSSISSGGSYIYYADSVKGRFTISRDNAKNSLYLQMNSLRAEDTAVYYCARGGSILWWLIDYWGQGTLVTVSS
VL: NFMLTQPHSVSESPGKTVTISCTGSSGSIASNYVQWYQQRPGSAPTTVIYEDNQRPSGVPDRFSGSIDSSSNSASLTISGLKTEDEADYYCQSYDSTSRVVFGGGTKLTVL
For B1, the binding result was “binds”.

B2: DH1045 (antibody, V domains shown)
VH: QLQLQESGPGLVKPSETLSLTCTVSGGSISSSGYYWGWIRQPPGKGLEWIGTIYYGGSTYYSPSLKSRVTISVDTSKNQFSLKLSSVTAADTAVYYCASQQWLRGNFDYWGQGTLVTVSS
VL: B1 VL with T97S, S98T, R99Y, V100W
Take B2: the binding result is recorded as “binds”.

B3: BD55-1237 (antibody, V domains shown)
VH: QVQLVESGGGVVQPGRSLRLSCATSDFTSNTYGIHWVRQAPGKGLEWVAVIWSDGSHEYYADSVKGRFTISRDNSKNTVYLQMASLRPEDTALYYCAKSPWLRGSFDVWGQGTVVPVSS
VL: NFLLTQPHSVSESPGKTVTISCSGSSGYIASNYVQWYQQRPGSAPIVVMYEDNQRPSGVPDRFSGSIDSSSNSASLTISGLKTEDEADYYCQSYDSDNRAWVFGGGTKLTVL
As for B3, the binding result is “binds”.

B4: BD55-3500 (antibody, V domains shown)
VH: QVQLVESGGGVVQPGRSLRLSCAASGFIFSRYDIHWVRQTPGKGLEWVALIRYDGSDKYYADSVKGRFTISRDNSKNTLYLQMNSLRVEDTAVYYCAKEGIQGYSGYDYFWTGFYFDYWGQGTLVTVSS
VL: not shown
As for B4, the binding result is on record as “binds”.

B5: BD-801 (antibody, V domains shown)
VH: DVQLVESGGGLVQPGGSRRLSCAASGFMFSSYWMNWVRQAPGKGLEWVASIKEDGSEKYYVDSVKGRFTISRDNAKNSLFLQMNSLRAEDTAVYYCARKCRGYYDRSGYYYKCAFDIWGQGTMVTVSS
VL: PYVLTQPPSVSVAPGKTARITCGGNNLGTNSVHWYQQKPGQAPVLVMYYDSDRPSGIPERFSGSNSGNTATLTISRVDAGDEADYYCQVWDSSSDHWVFGGGTKLTVL
As to B5, the binding result was “binds”.

B6: BD55-5339 (antibody, V domains shown)
VH: EVQLVESGEGLVQPGGSLRISCAASGFTFSNYPMHWVRQAPGQGLESVSSITSNGDGTFYANSVKGRFTISRDNSKNTLYLQMGSLRTEDTALYFCAREVAEQLDCYFDLWGRGTLVTVSS
VL: DIQMTQSPSSLSASVGDRVTITCRASQSIRTYLNWYQHKPGKAPKLLIFAASSLQSGVPSRFSGSGSGTDFSLTISSLQPEDFATYYCQQSYITPPITFGQGTRLEIK
Take B6: the binding result is listed as “binds”.

B7: DH1047 (antibody, V domains shown)
VH: QVQLVQSGAEVKKPGASVQVSCQASANTFTNHYIHWVRQAPGQGLEWMGIIYPTGGNTIYAQGFQGRVTMTRDTSLNTIYLELSSLRSEDTAVYYCARDVRVDDSWSGYDLLSGGTYFDYWGQGTLVTVSS
VL: not shown
In the case of B7, the binding result is given as “binds”.

B8: BD55-5226 (antibody, V domains shown)
VH: EVQLVESGGGLVKPGGSLRLSCAASGFTFSSYSMNWVRQAPGKGLEWVSSISMTSSYRHYADSVRGRFTISRDNANNSLFLQMNSLRAEDTAVYFCARDSNLRTGDANDYWGQGTLVTVSS
VL: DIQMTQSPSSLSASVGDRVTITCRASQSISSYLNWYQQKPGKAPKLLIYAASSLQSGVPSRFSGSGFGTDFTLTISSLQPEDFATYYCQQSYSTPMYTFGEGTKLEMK
In the case of B8, the binding result is reported as “binds”.

B9: BD55-5267 (antibody, V domains shown)
VH: QVQLQESGPGLVKPSGTLSLTCAVSGGSISSSNWWSWVRQPPGKGLEWIGEIYHSGSTNYNPSLKSRVTISVDKSKNKFSLKLSSVTAADTAVYFCARAGWIESGYDAFVGYFDYWGQGTLVTVSS
VL: DIQMTQSPSSLSASVGDRVTITCRASQGISSSLAWYQQKPGKAPDLLLYAASGLESGVPSRFSGSGSGTDFTLSISSLQPEDFATYYCQQYYSPPRTFGQGTKLEIK
Regarding B9, the binding result is given as “binds”.

B10: BD-708 (antibody, V domains shown)
VH: QVQLVESGGGVVQPGRSLRLSCAASGFTLSNYAMHWVRQAPGTGLEWVAVISDDGSIKFYADSVKGRFTISRDNSKNTLYLQMNSLRAEDTAVYYCARDGDDSSGYFFDYWGQGTLVTVSS
VL: DIQMTQSPSSLSASVGDRVTITCRASQGINNFLAWYQQKPGKAPKLLLYSASRLESGVPSRFSGSGSGTDYTLTISSLQPEDFATYYCQQYYSTLALTFGGGTKVEIK
For the molecule B10, the binding result was “binds”.

B11: COVA1-16 (antibody, V domains shown)
VH: QVQLVQSGAEVKKPGASVKVSCKASGYTFTSYYMHWVRQAPGQGLEWMGIINSSGGSTSYAQKFQGRVTMTRDTSTSTVYMELSSLRSEDTAVYYCARPPRNYYDRSGYYQRAEYFQHWGQGTLVTVSS
VL: DIQLTQSPSSLSASVGDRVTITCQASQDISNYLNWYQQRPGKAPKLLIYDASNLETGVPSRFSGSGSGTDFTFTISSLQPEDIATYYCQQYDNPPLTFGGGTKLEIK
B11: the binding result is given as “binds”.

B12: BD55-3304 (antibody, V domains shown)
VH: QVQLVESGGGVVQPERSLRLSCAASGFIFSNYGMHWVRQAPGKGLEWVALIWYDGSNRYYADSVKGRFTISRDNSRNTLYLQMNSLRAEDTAMYYCAKSALRGYSGYDFFSRVSDEYYFDNWGQGTLVTVSS
VL: DIVMTQSPDSLAVSLGERATISCKSSQSVLYSSNNQNYLAWYQQKPGQPPKLLIKWASTRESGVPDRFSGSGSGTDFTLTITSLQAEDVAVYYCQQYFDTPHFGQGTKLEIK
With B12, the binding result was “binds”.

B13: BD55-5259 (antibody, V domains shown)
VH: QITLKESGPTLVKPTQTLTLTCTFSGFSLTMPEVGVAWVRQPPGKALEWLALIYGDDNKRYSPSLESRLTITKDSSKNQVVLTMTNLDSVDTATYYCARRKFLWDSDPVAFDYWGLGTLVIVSS
VL: DIVMTQTPLSLPVTLGQPASISCRSSQSLVHIDGNIYLSWLQQRPGQPPRLLIYKISNRFSGVPDRFSGSGSGTDFTLKISRVEAEDVGVYYCMQATQFPHEMYTFGQGTKLEIR
As to B13, the binding result is “binds”.
